In patent US20240059789A1 (Janssen / Centocor, published 2024):
Substitutions are numbered along the chain they refer to. Values belong to the binder of their own block, whether it stands above or below them.

Tests used:
Test in all cases: cell-based or functional assay
[1] = biological target: Human CD3 on T cells / Jurkat cells (human, UniProt P07766 23-207)
[2] = biological target: T1, Human PSMA on prostate cancer cell lines (C4-2B, 22RV1) (human, UniProt Q04609 1-750)
[3] = biological target: T1, Human PSMA on prostate cancer cell …; remark: listed apart in the source

T1 sequence (Q04609 whole entry): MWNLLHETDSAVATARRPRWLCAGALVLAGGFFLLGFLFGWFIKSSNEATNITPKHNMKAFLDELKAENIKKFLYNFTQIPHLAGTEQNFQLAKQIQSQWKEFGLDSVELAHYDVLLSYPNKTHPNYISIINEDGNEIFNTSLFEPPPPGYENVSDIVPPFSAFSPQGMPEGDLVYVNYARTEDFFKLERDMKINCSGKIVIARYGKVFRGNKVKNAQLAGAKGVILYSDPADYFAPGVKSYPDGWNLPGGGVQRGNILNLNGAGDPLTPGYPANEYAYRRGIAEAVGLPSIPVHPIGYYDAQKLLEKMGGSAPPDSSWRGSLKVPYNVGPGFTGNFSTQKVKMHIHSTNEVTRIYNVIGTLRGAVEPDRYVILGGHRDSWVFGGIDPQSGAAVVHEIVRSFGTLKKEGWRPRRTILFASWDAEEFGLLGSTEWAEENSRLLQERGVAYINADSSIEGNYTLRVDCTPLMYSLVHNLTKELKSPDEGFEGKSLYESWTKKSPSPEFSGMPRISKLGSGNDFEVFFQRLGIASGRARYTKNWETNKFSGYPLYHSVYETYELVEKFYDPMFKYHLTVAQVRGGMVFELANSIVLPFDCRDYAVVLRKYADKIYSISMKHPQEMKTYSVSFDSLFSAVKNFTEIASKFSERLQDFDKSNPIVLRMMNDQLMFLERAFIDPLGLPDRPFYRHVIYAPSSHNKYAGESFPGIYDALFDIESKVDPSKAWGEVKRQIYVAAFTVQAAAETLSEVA
Human CD3 on T cells / Jurkat cells, sequence (P07766 23-207 limits assumed): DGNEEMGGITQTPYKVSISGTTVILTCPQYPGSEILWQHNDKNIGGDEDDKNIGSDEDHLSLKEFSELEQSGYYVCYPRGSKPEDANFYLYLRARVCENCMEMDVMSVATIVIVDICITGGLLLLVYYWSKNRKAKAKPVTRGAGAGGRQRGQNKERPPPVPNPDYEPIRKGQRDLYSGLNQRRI

T cell activation EC50 [M] (CD25+ T cells, C4-2B co-culture, 72 h) [1]: 2.4e-12 M
B1: PS3B930 (bispecific antibody, human IgG1, kappa, lambda, L234A L235A)
heavy 1: EVQLVESGGGLVKPGGSLRLSCAASGFTFSRYNMNWVRQAPGKGLEWVSSISTSSNYIYYADSVKGRFTFSRDNAKNSLDLQMSGLRAEDTAIYYCTRGWGPFDYWGQGTLVTVSSASTKGPSVFPLAPSSKSTSGGTAALGCLVKDYFPEPVTVSWNSGALTSGVHTFPAVLQSSGLYSLSSVVTVPSSSLGTQTYICNVNHKPSNTKVDKKVEPKSCDKTHTCPPCPAPEAAGGPSVFLFPPKPKDTLMISRTPEVTCVVVSVSHEDPEVKFNWYVDGVEVHNAKTKPREEQYNSTYRVVSVLTVLHQDWLNGKEYKCKVSNKALPAPIEKTISKAKGQPREPQVYTLPPSREEMTKNQVSLTCLVKGFYPSDIAVEWESNGQPENNYKTTPPVLDSDGSFLLYSKLTVDKSRWQQGNVFSCSVMHEALHNHYTQKSLSLSP
light 1: DIQMTQSPSSLSASVGDRVTITCRARQSIGTAIHWYQQKPGKAPKLLIKYASESISGVPSRFSGSGSGTDFTLTISSLQPEDFATYYCQQSGSWPYTFGQGTKLEIKRTVAAPSVFIFPPSDEQLKSGTASVVCLLNNFYPREAKVQWKVDNALQSGNSQESVTEQDSKDSTYSLSSTLTLSKADYEKHKVYACEVTHQGLSSPVTKSFNRGEC
heavy 2: EVQLVESGGGLVKPGGSLRLSCAASGFTFSRYNMNWVRQAPGKGLEWVSSINSNSRYIYYADSVKGRFTISRDSAKNSLYLQMNSLRAEDTAVYYCAKTMGDYYYYYGMDVWGQGTTVTVSSASTKGPSVFPLAPSSKSTSGGTAALGCLVKDYFPEPVTVSWNSGALTSGVHTFPAVLQSSGLYSLSSVVTVPSSSLGTQTYICNVNHKPSNTKVDKKVEPKSCDKTHTCPPCPAPEAAGGPSVFLFPPKPKDTLMISRTPEVTCVVVSVSHEDPEVKFNWYVDGVEVHNAKTKPREEQYNSTYRVVSVLTVLHQDWLNGKEYKCKVSNKALPAPIEKTISKAKGQPREPQVYTLPPSREEMTKNQVSLTCLVKGFYPSDIAVEWESNGQPENNYKTTPPVLDSDGSFFLYSRLTVDKSRWQQGNVFSCSVMHEALHNHYTQKSLSLSPG
light 2: QSVLTQPPSVSGAPGQRVTISCTGSSFNLGAGYDVHWYQQVPGTVPKLLIYDNSNRPSGVPDRFSGSKSGTSASLAITGLQAEDETVYYCQSYDSSLSGVVFGGGTKLTVLGQPKAAPSVTLFPPSSEELQANKATLVCLISDFYPGAVTVAWKADSSPVKAGVETTTPSKQSNNKYAASSYLSLTPEQWKSHRSYSCQVTHEGSTVEKTVAPTECS

% cytolysis at 120 hours (C4-2B, xCelligence, donor #1) at 80 pM [2]: 100% | % cytolysis at 120 hours (C4-2B, xCelligence, donor #1) at 0.4 nM [2]: 100% | % cytolysis at 120 hours (C4-2B, xCelligence, donor #1) at 2 nM [2]: 100% | % cytolysis at 120 hours (C4-2B, xCelligence, donor #1) at 10 nM [2]: 100% | % cytolysis at 120 hours (C4-2B, xCelligence, donor #1) at 50 nM [2]: 100% | % cytolysis at 120 hours (C4-2B, xCelligence, donor #2) at 80 pM [2]: 100% | % cytolysis at 120 hours (C4-2B, xCelligence, donor #2) at 0.4 nM [2]: 100% | % cytolysis at 120 hours (C4-2B, xCelligence, donor #2) at 2 nM [2]: 100% | % cytolysis at 120 hours (C4-2B, xCelligence, donor #2) at 10 nM [2]: 100% | % cytolysis at 120 hours (C4-2B, xCelligence, donor #2) at 50 nM [2]: 100% | % cytolysis at 120 hours (C4-2B, xCelligence, donor #3) at 80 pM [2]: 100% | % cytolysis at 120 hours (C4-2B, xCelligence, donor #3) at 0.4 nM [2]: 100% | % cytolysis at 120 hours (C4-2B, xCelligence, donor #3) at 2 nM [2]: 100% | % cytolysis at 120 hours (C4-2B, xCelligence, donor #3) at 10 nM [2]: 100% | % cytolysis at 120 hours (C4-2B, xCelligence, donor #3) at 50 nM [2]: 100%
B2: PS3B1357 (bispecific antibody, human IgG1, lambda, L234A L235A)
heavy 1: QVQLQQSGPGLVKPSQTLSLTCAISGDSVFNNNAAWSWIRQSPSRGLEWLGRTYYRSKWLYDYAVSVKSRITINPDTSKNQFSLQLNSVTPEDTAVYYCARGYSSSFDYWGQGTLVTVSSASTKGPSVFPLAPSSKSTSGGTAALGCLVKDYFPEPVTVSWNSGALTSGVHTFPAVLQSSGLYSLSSVVTVPSSSLGTQTYICNVNHKPSNTKVDKKVEPKSCDKTHTCPPCPAPEAAGGPSVFLFPPKPKDTLMISRTPEVTCVVVSVSHEDPEVKFNWYVDGVEVHNAKTKPREEQYNSTYRVVSVLTVLHQDWLNGKEYKCKVSNKALPAPIEKTISKAKGQPREPQVYTLPPSREEMTKNQVSLTCLVKGFYPSDIAVEWESNGQPENNYKTTPPVLDSDGSFLLYSKLTVDKSRWQQGNVFSCSVMHEALHNHYTQKSLSLSPGK
light 1: QSALTQPASVSGSPGQSITISCTGTSSNIGTYKFVSWYQQHPGKAPKVMIYEVSKRPSGVSNRFSGSKSGNTASLTISGLQAEDEADYYCVSYAGSGTLLFGGGTKLTVLGQPKAAPSVTLFPPSSEELQANKATLVCLISDFYPGAVTVAWKADSSPVKAGVETTTPSKQSNNKYAASSYLSLTPEQWKSHRSYSCQVTHEGSTVEKTVAPTECS
heavy 2: EVQLVESGGGLVQPGGSLRLSCAASGFTFSSYAMSWVRQAPGKGLEWVSAISGGIGSTYYADSVKGRFTISRDNSKNTLWLQMNSLRAEDTAVYYCAKDGVGATPYYFDYWGQGTLVTVSSASTKGPSVFPLAPSSKSTSGGTAALGCLVKDYFPEPVTVSWNSGALTSGVHTFPAVLQSSGLYSLSSVVTVPSSSLGTQTYICNVNHKPSNTKVDKKVEPKSCDKTHTCPPCPAPEAAGGPSVFLFPPKPKDTLMISRTPEVTCVVVSVSHEDPEVKFNWYVDGVEVHNAKTKPREEQYNSTYRVVSVLTVLHQDWLNGKEYKCKVSNKALPAPIEKTISKAKGQPREPQVYTLPPSREEMTKNQVSLTCLVKGFYPSDIAVEWESNGQPENNYKTTPPVLDSDGSFFLYSRLTVDKSRWQQGNVFSCSVMHEALHNHYTQKSLSLSPGK
light 2: QSVLTQPPSVSAAPGQKVTISCSGSSSNIGINYVSWYQQLPGTAPKLLIYDNNKRPSGIPDRFSGSKSGTSATLGITGLQTGDEADYYCGTWDSSLSAVVFGGGTKLTVLGQPKAAPSVTLFPPSSEELQANKATLVCLISDFYPGAVTVAWKADSSPVKAGVETTTPSKQSNNKYAASSYLSLTPEQWKSHRSYSCQVTHEGSTVEKTVAPTECS
Cytotoxicity (C4-2B cells, 3:1 E:T ratio, 5 Day) at 0.3 nM [3]: 96% | Cytotoxicity (C4-2B cells, 3:1 E:T ratio, 5 Day) at 1.1 nM [3]: 96% | Cytotoxicity (C4-2B cells, 3:1 E:T ratio, 5 Day) at 3.3 nM [3]: 95% | Cytotoxicity (C4-2B cells, 3:1 E:T ratio, 5 Day) at 10 nM [3]: 96% | Cytotoxicity (C4-2B cells, 3:1 E:T ratio, 5 Day) at 30 nM [3]: 91%

% cytolysis at 120 hours (C4-2B, xCelligence, donor #1) at 80 pM [2]: 77% | % cytolysis at 120 hours (C4-2B, xCelligence, donor #1) at 0.4 nM [2]: 100% | % cytolysis at 120 hours (C4-2B, xCelligence, donor #1) at 2 nM [2]: 100% | % cytolysis at 120 hours (C4-2B, xCelligence, donor #1) at 10 nM [2]: 100% | % cytolysis at 120 hours (C4-2B, xCelligence, donor #1) at 50 nM [2]: 100% | % cytolysis at 120 hours (C4-2B, xCelligence, donor #2) at 80 pM [2]: 0% | % cytolysis at 120 hours (C4-2B, xCelligence, donor #2) at 0.4 nM [2]: 100% | % cytolysis at 120 hours (C4-2B, xCelligence, donor #2) at 2 nM [2]: 100% | % cytolysis at 120 hours (C4-2B, xCelligence, donor #2) at 10 nM [2]: 100% | % cytolysis at 120 hours (C4-2B, xCelligence, donor #2) at 50 nM [2]: 100% | % cytolysis at 120 hours (C4-2B, xCelligence, donor #3) at 80 pM [2]: 9% | % cytolysis at 120 hours (C4-2B, xCelligence, donor #3) at 0.4 nM [2]: 100% | % cytolysis at 120 hours (C4-2B, xCelligence, donor #3) at 2 nM [2]: 100% | % cytolysis at 120 hours (C4-2B, xCelligence, donor #3) at 10 nM [2]: 100% | % cytolysis at 120 hours (C4-2B, xCelligence, donor #3) at 50 nM [2]: 100%
B3: PS3B1352 (bispecific antibody, human IgG1, lambda, L234A L235A)
heavy 1: B2 heavy 1 with G10R, K13R, I73V, K79R, S83T, V96L
light 1: B2 light 1 with G43D, M49L, I50L, N62S, E85Q, Y89H
heavy 2: B2 heavy 2
light 2: B2 light 2 with I31N, V99Y, G103T, L107V
Cytotoxicity (C4-2B cells, 3:1 E:T ratio, 5 Day) at 0.3 nM [3]: 65% | Cytotoxicity (C4-2B cells, 3:1 E:T ratio, 5 Day) at 1.1 nM [3]: 88% | Cytotoxicity (C4-2B cells, 3:1 E:T ratio, 5 Day) at 3.3 nM [3]: 89% | Cytotoxicity (C4-2B cells, 3:1 E:T ratio, 5 Day) at 10 nM [3]: 85% | Cytotoxicity (C4-2B cells, 3:1 E:T ratio, 5 Day) at 30 nM [3]: 79%
